Measurements as given in publication PMC9481740 (The Journal of Cell Biology, 2022).
Residue numbers refer to the chain shown, from its start. In names and notes the source's numbering stands. Several values for one entry are separate records, joined by “and”; a condition that tells them apart may be missing. Identical values can stand only once.

Assays:
[1] = target: ^mChSpindly^Y26BPA (human) (UniProt Q96EA4); assay: mass photometry; Refeyn TwoMP; sample diluted to a final 10 nM in Spindly buffer (50 mM Hepes pH 8.0, 250 mM NaCl, 2 mM TCEP); crosslinked samples measured after dilution beside untreated controls
[2] = target: T1, mCherry-tagged full-length Spindly (^mChSpindly^FL) (human), Q96EA4; assay: as above; conditions: remark: other sources report otherwise
T1 chain: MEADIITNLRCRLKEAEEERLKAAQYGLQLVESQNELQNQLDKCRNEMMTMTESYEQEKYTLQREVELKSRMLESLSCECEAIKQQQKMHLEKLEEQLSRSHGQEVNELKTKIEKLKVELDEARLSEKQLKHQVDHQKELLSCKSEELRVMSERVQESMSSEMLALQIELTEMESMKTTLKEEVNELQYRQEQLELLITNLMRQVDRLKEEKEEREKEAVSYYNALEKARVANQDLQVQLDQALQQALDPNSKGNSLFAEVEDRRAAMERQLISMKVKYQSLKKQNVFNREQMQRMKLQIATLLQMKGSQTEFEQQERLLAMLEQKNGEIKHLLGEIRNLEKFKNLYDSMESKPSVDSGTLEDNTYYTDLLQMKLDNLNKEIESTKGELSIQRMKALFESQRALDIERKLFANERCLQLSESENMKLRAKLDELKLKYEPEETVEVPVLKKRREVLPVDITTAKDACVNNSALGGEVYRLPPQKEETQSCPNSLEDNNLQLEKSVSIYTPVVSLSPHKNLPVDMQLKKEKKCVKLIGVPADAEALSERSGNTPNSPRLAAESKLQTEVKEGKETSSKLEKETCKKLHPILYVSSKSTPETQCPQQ

[3] = target: T2, full-length Spindly without mCherry tag (human), Q96EA4; assay: as above; conditions: remark: other sources report otherwise
T2 chain: T1 chain

[4] = target: the molecule itself; assay: not stated; unpublished observations; dimer-tetramer equilibrium, tetramer prevailing at micromolar concentration
[5] = target: the molecule itself; assay: crystal structure; Spindly 1-100, Se-SAD, refined to 2.8 Å; Bis-Tris Propane/HCl pH 6.5, 19% PEG3350, 0.2 M potassium thiocyanate
Spindly^250–605 = target: T3, Spindly^250–605 (human, UniProt Q96EA4 250-605); assay: SEC; Spindly N-terminal and C-terminal fragments mixed, 10 µM each; 4°C, Spindly buffer; fractions on SDS-PAGE; conditions: both partners purified
T3 construct: also called CC2 and CC3; source: TnAO38 insect cells (baculovirus), purified (HisTrap, Resource Q, Superdex 200)
T3 sequence (looked up): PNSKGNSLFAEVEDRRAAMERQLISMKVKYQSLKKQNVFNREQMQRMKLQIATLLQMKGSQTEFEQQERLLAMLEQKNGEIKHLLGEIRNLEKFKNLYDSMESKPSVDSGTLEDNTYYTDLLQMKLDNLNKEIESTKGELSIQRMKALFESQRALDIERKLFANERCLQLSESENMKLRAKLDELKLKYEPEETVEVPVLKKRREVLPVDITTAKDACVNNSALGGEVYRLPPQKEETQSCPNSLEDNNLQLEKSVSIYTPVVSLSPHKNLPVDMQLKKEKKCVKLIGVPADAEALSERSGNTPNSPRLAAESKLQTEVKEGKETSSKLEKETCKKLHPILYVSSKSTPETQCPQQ

[6] = target: the molecule itself; assay: mass photometry; Refeyn TwoMP; sample diluted to a final 10 nM in Spindly buffer (50 mM Hepes pH 8.0, 250 mM NaCl, 2 mM TCEP); crosslinked samples measured after dilution beside untreated controls

^mChSpindly^Y26BPA (from UniProt Q96EA4 1-605) (natural protein)
stoichiometry N [1]: 2

B1: mCherry-tagged full-length Spindly (^mChSpindly^FL), Q96EA4 1-605 (natural protein)
chain: T1 chain
stoichiometry N [2]: 2

B2: full-length Spindly without mCherry tag, Q96EA4 1-605 (natural protein)
chain: T1 chain
stoichiometry N [3]: 2

B3: Spindly^1–275 (domain or fragment, human, UniProt Q96EA4 1-275, looked up)
chain: MEADIITNLRCRLKEAEEERLKAAQYGLQLVESQNELQNQLDKCRNEMMTMTESYEQEKYTLQREVELKSRMLESLSCECEAIKQQQKMHLEKLEEQLSRSHGQEVNELKTKIEKLKVELDEARLSEKQLKHQVDHQKELLSCKSEELRVMSERVQESMSSEMLALQIELTEMESMKTTLKEEVNELQYRQEQLELLITNLMRQVDRLKEEKEEREKEAVSYYNALEKARVANQDLQVQLDQALQQALDPNSKGNSLFAEVEDRRAAMERQLISM
notes: source: TnAO38 insect cells (baculovirus), purified (HisTrap, Resource Q, Superdex 200)
stoichiometry N [4]: 2 and 4

B4: Spindly^1–100 (domain or fragment, human, UniProt Q96EA4 1-100, looked up)
chain: MEADIITNLRCRLKEAEEERLKAAQYGLQLVESQNELQNQLDKCRNEMMTMTESYEQEKYTLQREVELKSRMLESLSCECEAIKQQQKMHLEKLEEQLSR
notes: selenomethionine protein was also made for phasing; source: E. coli BL21 (DE3), purified (Ni-Sepharose, ion exchange, S200 SEC); not shown: His6, N-terminal, cleaved
stoichiometry N [5]: 2

B5: Spindly^1–250 (domain or fragment, human, UniProt Q96EA4 1-250, looked up)
chain: MEADIITNLRCRLKEAEEERLKAAQYGLQLVESQNELQNQLDKCRNEMMTMTESYEQEKYTLQREVELKSRMLESLSCECEAIKQQQKMHLEKLEEQLSRSHGQEVNELKTKIEKLKVELDEARLSEKQLKHQVDHQKELLSCKSEELRVMSERVQESMSSEMLALQIELTEMESMKTTLKEEVNELQYRQEQLELLITNLMRQVDRLKEEKEEREKEAVSYYNALEKARVANQDLQVQLDQALQQALDP
notes: also called CC1; source: TnAO38 insect cells (baculovirus), purified (HisTrap, Resource Q, Superdex 200)
binding result (Spindly^250–605): binds

B6: ^mChSpindly^CC2* (R295E-K297E) (natural protein, human, UniProt Q96EA4 1-605, looked up)
chain: T1 chain with R295E, K297E
notes: source: E. coli BL21 CodonPlus, purified (HisTrap, Resource Q, Superdex 200); not shown: mCherry, N-terminal, kept
stoichiometry N [6]: 2

B7: ^mChSpindly^76–605 (domain or fragment, human, UniProt Q96EA4 76-605, looked up)
chain: LSCECEAIKQQQKMHLEKLEEQLSRSHGQEVNELKTKIEKLKVELDEARLSEKQLKHQVDHQKELLSCKSEELRVMSERVQESMSSEMLALQIELTEMESMKTTLKEEVNELQYRQEQLELLITNLMRQVDRLKEEKEEREKEAVSYYNALEKARVANQDLQVQLDQALQQALDPNSKGNSLFAEVEDRRAAMERQLISMKVKYQSLKKQNVFNREQMQRMKLQIATLLQMKGSQTEFEQQERLLAMLEQKNGEIKHLLGEIRNLEKFKNLYDSMESKPSVDSGTLEDNTYYTDLLQMKLDNLNKEIESTKGELSIQRMKALFESQRALDIERKLFANERCLQLSESENMKLRAKLDELKLKYEPEETVEVPVLKKRREVLPVDITTAKDACVNNSALGGEVYRLPPQKEETQSCPNSLEDNNLQLEKSVSIYTPVVSLSPHKNLPVDMQLKKEKKCVKLIGVPADAEALSERSGNTPNSPRLAAESKLQTEVKEGKETSSKLEKETCKKLHPILYVSSKSTPETQCPQQ
notes: as for B6
stoichiometry N [6]: 2

B8: ^mChSpindly^∆276–306 (natural protein, human, UniProt Q96EA4 1-605, looked up)
chain: MEADIITNLRCRLKEAEEERLKAAQYGLQLVESQNELQNQLDKCRNEMMTMTESYEQEKYTLQREVELKSRMLESLSCECEAIKQQQKMHLEKLEEQLSRSHGQEVNELKTKIEKLKVELDEARLSEKQLKHQVDHQKELLSCKSEELRVMSERVQESMSSEMLALQIELTEMESMKTTLKEEVNELQYRQEQLELLITNLMRQVDRLKEEKEEREKEAVSYYNALEKARVANQDLQVQLDQALQQALDPNSKGNSLFAEVEDRRAAMERQLISMKGSQTEFEQQERLLAMLEQKNGEIKHLLGEIRNLEKFKNLYDSMESKPSVDSGTLEDNTYYTDLLQMKLDNLNKEIESTKGELSIQRMKALFESQRALDIERKLFANERCLQLSESENMKLRAKLDELKLKYEPEETVEVPVLKKRREVLPVDITTAKDACVNNSALGGEVYRLPPQKEETQSCPNSLEDNNLQLEKSVSIYTPVVSLSPHKNLPVDMQLKKEKKCVKLIGVPADAEALSERSGNTPNSPRLAAESKLQTEVKEGKETSSKLEKETCKKLHPILYVSSKSTPETQCPQQ
notes: predominantly dimeric, with a tendency to form tetramers; source: E. coli BL21 CodonPlus, purified (HisTrap, Resource Q, Superdex 200); not shown: mCherry, N-terminal, kept
stoichiometry N [6]: 2 and 4

B9: ^mChSpindly^ΔRV (natural protein, human, UniProt Q96EA4 1-605, looked up)
chain: MEADIITNLRCRLKEAEEERLKAAQYGLQLVESQNELQNQLDKCRNEMMTMTESYEQEKYTLQREVELKSRMLESLSCECEAIKQQQKMHLEKLEEQLSRSHGQEVNELKTKIEKLKVELDEARLSEKQLKHQVDHQKELLSCKSEELRVMSEQESMSSEMLALQIELTEMESMKTTLKEEVNELQYRQEQLELLITNLMRQVDRLKEEKEEREKEAVSYYNALEKARVANQDLQVQLDQALQQALDPNSKGNSLFAEVEDRRAAMERQLISMKVKYQSLKKQNVFNREQMQRMKLQIATLLQMKGSQTEFEQQERLLAMLEQKNGEIKHLLGEIRNLEKFKNLYDSMESKPSVDSGTLEDNTYYTDLLQMKLDNLNKEIESTKGELSIQRMKALFESQRALDIERKLFANERCLQLSESENMKLRAKLDELKLKYEPEETVEVPVLKKRREVLPVDITTAKDACVNNSALGGEVYRLPPQKEETQSCPNSLEDNNLQLEKSVSIYTPVVSLSPHKNLPVDMQLKKEKKCVKLIGVPADAEALSERSGNTPNSPRLAAESKLQTEVKEGKETSSKLEKETCKKLHPILYVSSKSTPETQCPQQ
notes: also called ^mChSpindly^∆RV; source: E. coli BL21 CodonPlus, purified (HisTrap, Resource Q, Superdex 200); not shown: mCherry, N-terminal, kept
stoichiometry N [6]: 2
